# Measured values published in paper PMC8328229 (Methods in enzymology, 2021).
# Primed or numbered codes have the meaning given here. Where no end group is shown, it is not given here. FITC′ = fluorescein
# T1: MBP-tagged Methanocaldococcus jannaschii YcaO (Methanocaldococcus jannaschii, UniProt Q58494 1-385)
# T1 sequence (looked up): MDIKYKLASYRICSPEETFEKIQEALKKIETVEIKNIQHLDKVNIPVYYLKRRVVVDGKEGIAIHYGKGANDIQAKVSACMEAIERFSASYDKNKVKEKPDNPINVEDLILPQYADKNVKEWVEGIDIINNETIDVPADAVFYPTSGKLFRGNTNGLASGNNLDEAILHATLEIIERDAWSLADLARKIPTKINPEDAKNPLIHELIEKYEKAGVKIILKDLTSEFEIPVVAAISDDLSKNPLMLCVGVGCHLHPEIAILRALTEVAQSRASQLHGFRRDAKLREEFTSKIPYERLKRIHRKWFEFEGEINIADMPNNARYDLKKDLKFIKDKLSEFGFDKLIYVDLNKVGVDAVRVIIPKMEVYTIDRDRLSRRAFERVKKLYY
# Columns and labels:
# [1] = target: FITC-labeled M. acetivorans McrA 13-mer peptide (GG-…) (Methanosarcina acetivorans); assay: fluorescence polarisation
# [2] = tested on: MjYcaO; settings: cited from earlier work
# [3] = tested on: M. acetivorans TfuA; settings: FP; 25 °C, 1 h; ref Mahanta et al., 2018; cited from earlier work
# [4] = target: T1, MBP-tagged Methanocaldococcus …; assay: fluorescence polarisation
# [5] = target: MBP-tagged Methanosarcina acetivorans YcaO (Methanosarcina acetivorans); assay: fluorescence polarisation
Molecule,fold reduction of affinity against the wild-type peptide [5] [fold],also measured
MBP-tagged Methanosarcina acetivorans YcaO (enzyme),–,Kd [1]: 700 nM
Nc1ncnc2c1ncn2[C@@H]1O[C@H](COP(=O)(O)OP(=O)(O)OP(=O)(O)O)[C@@H](O)[C@H]1O [ATP],–,"ATP-derived by-products of thioamidation ([2]; 31P NMR, YcaO-catalyzed thioamidation, ref Mahanta et al., 2018): ADP and phosphate (Pi) were found to be the by-products; ATP hydrolysis in the absence of the McrA peptide substrate ([2]; absence of McrA peptide, ref Dong et al., 2019): YcaO can hydrolyze ATP to ADP and Pi unproductively"
GG-RLGFFGFDLQD [native McrA peptide],–,binding [3]: not detected
{FITC′}-GGRLGFYGYDLQD [FITC-labeled M. jannaschii McrA 13-mer peptide (GG-RLGFYGYDLQD)],–,Kd [4]: 1100 nM
"RLGFFGFDAQD [MBP-tagged McrA peptide, Ala substitution of Leu468]",14,–
"RLGFFGFDLAD [MBP-tagged McrA peptide, Ala substitution of Gln469]",24,–
RLGFFGFDLQD [wild-type MBP-tagged McrA peptide (M. acetivorans McrA 11-mer)],–,Ki [5]: 700 nM
"RLAFFGFDLQD [MBP-tagged McrA peptide, Ala substitution of Gly462]",14,–
"RLGFFGFALQD [MBP-tagged McrA peptide, Ala substitution of Asp467]",12,–
"RLGFAGFDLQD [MBP-tagged McrA peptide, Ala substitution of Phe464]",11,–
"RAGFFGFDLQD [MBP-tagged McrA peptide, Ala substitution of Leu461]",28,–
"RLGFFAFDLQD [MBP-tagged McrA peptide, Ala substitution of Gly465]",14,–
